US20180282386A1 (REGENTS OF THE UNIVERSITY OF MINNESOTA, published 2018)

B1: 1633 bispecific killer engager (BiKE) (bispecific antibody)
chain: MEVQLVESGGGVVRPGGSLRLSCAASGFTFDDYGMSWVRQAPGKGLEWVSGINWNGGSTGYADSVKGRFTISRDNAKNSLYLQMNSLRAEDTAVYYCARGRSLLFDYWGQGTLVTVSRGGGGSGGGGSGGGGSSELTQDPAVSVALGQTVRITCQGDSLRSYYASWYQQKPGQAPVLVIYGKNNRPSGIPDRFSGSSSGNTASLTITGAQAEDEADYYCNSRDSSGNHVVFGGGTKLTVLPSGQAGAAASESLFVSNHAYQVQLVQSGAEVKKPGSSVKVSCKASGYTFTDYNMHWVRQAPGQGLEWIGYIYPYNGGTGYNQKFKSKATITADESTNTAYMELSSLRSEDTAVYYCARGRPAMDYWGQGTLVTVSSGGGGSGGGGSGGGGSDIQMTQSPSSLSASVGDRVTITCRASESVDNYGISFMNWFQQKPGKAPKLLIYAASNQGSGVPSRFSGSGSGTDFTLTISSLQPDDFATYYCQQSKEVPWTFGQGTKVEIK
modifications: FITC label (site not stated)
B2: anti-CD133 scFv (scFv)
scFv: MDIVLSQSPAIMSASPGEKVTISCSASSSVSYMYWYQQKPGSSPKPWIYRTSNLASGVPARFSGSGSGTSYSLTISSMEAEDAATYYCQQYHSYPPTFGAGTKLELKSSGGGGSGGGGGGSSRSSLEVKLVESGPELKKPGETVKISCKASGYTFTDYSMHWVNQAPGKGLKWMGWINTETGEPSYADDFKGRFAFSLETSASTAYLQINNLKNEDTATYFCATDYGDYFDYWGQGTTLTVSS
notes: also called monomeric CD133 scFv; anti-CD133 scFv from clone 7

How the values were obtained:
[1] = molecular target: EpCAM on HT-29 cells (human) (UniProt P16422); test: flow cytometry, direct binding to CD33- EpCAM+ HT-29 cells (specificity control), 4 µg drug
[2] = molecular target: T1, CD133 on Caco-2 cells (human, UniProt O43490 20-865); test: flow cytometry on Caco-2 cells, competition with FITC-labeled 1615133 TriKE
T1 construct: whole, on cells; also called prominin-1
T1 sequence (looked up): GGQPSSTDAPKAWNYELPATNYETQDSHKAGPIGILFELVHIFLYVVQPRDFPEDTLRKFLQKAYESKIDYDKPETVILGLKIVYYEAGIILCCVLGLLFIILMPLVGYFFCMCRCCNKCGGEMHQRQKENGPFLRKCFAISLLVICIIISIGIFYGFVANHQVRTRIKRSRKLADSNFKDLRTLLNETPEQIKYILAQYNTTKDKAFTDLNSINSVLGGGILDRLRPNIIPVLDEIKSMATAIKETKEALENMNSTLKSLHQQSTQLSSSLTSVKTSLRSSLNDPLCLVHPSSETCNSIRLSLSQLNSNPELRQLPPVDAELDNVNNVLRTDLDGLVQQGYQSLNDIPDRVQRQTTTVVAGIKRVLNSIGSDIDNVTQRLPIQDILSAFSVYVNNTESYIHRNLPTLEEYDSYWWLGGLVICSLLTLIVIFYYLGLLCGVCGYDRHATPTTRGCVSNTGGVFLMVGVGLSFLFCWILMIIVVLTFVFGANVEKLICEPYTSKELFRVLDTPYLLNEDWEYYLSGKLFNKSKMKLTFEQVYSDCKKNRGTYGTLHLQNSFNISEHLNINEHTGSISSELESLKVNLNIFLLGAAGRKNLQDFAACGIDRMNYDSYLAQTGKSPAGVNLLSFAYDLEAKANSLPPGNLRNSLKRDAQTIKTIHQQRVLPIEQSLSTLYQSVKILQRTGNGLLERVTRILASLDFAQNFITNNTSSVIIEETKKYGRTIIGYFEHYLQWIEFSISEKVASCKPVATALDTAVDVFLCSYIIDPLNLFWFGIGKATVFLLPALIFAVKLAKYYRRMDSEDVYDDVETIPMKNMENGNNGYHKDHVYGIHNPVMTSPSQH

EpCAM on HT-29 cells (human), sequence (P16422 24-314): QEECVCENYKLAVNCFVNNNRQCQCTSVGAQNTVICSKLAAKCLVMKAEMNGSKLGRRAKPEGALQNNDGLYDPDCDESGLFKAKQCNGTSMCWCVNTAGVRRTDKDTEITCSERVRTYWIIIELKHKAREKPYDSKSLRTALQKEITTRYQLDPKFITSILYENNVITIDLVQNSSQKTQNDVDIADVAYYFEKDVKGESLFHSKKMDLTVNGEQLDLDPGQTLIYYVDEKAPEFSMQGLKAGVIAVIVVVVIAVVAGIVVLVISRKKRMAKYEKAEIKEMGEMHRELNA

Binder	% Positive Cells [1] [%]	binding result [2]
B1	1	–
B2	–	binds
